Target: human PD-L1 (programmed death-ligand 1) (human) (UniProt Q9NZQ7)
Experiment: cell-based or functional assay

UniProt Q9NZQ7, sequence (Q9NZQ7 19-290): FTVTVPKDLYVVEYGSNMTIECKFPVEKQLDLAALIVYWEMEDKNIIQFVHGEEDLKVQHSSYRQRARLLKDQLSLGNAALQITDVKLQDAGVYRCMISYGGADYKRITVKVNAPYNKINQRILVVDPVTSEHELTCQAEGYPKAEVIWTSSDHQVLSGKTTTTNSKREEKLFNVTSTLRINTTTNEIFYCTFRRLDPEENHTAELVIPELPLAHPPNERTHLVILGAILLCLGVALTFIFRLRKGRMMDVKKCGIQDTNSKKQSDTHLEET

Substance: Untargeted (BcII10 VHH) chimera
- STAT1 phosphorylation (phospho STAT1 MFI, FACS) in MDA-MB-321 cells: 100 ng/mL

— patent US20230399406A1
